US20200291135A1 (INSPIRNA, published 2020)

Legend:
[1] = molecular target: T1, rhMer/Fc Chimera (recombinant human MERTK extracellular domain conjugated to an IgG Fc domain) (human, UniProt Q12866 21-505); assay: SPR, off-rate; ligand rhMer/Fc Chimera, antibody as analyte
T1 construct: extracellular domain; also called hMER recombinant protein; Mer-Fc conjugate; not shown: IgG Fc domain
T1 sequence (looked up): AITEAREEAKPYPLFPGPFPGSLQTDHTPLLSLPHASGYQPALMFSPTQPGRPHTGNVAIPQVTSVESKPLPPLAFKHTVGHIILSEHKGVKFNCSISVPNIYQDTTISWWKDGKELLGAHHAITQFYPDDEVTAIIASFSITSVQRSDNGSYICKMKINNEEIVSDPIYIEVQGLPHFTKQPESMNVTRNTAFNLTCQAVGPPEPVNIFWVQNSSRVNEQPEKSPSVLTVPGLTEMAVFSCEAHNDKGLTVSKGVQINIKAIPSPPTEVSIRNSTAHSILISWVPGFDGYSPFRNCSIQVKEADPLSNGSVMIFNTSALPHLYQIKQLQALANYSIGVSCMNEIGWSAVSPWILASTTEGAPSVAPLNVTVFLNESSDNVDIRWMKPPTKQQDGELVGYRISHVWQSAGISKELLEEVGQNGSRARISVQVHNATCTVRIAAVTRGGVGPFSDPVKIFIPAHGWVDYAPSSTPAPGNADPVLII

[2] = molecular target: T1, rhMer/Fc Chimera (recombinant human …); assay: SPR, off-rate; ligand rhMer/Fc Chimera, antibody as analyte; below the detection limit of the instrument
[3] = molecular target: T2, human MERTK expressed on cells (SKMEL5 melanoma cells; in vitro differentiated M2 macrophages) (human, UniProt Q12866 21-999); assay: cell-based assay similar to that for z10 (flow cytometry on cells)
T2 construct: Endogenous MERTK of human cells; also called surface MERTK
T2 sequence: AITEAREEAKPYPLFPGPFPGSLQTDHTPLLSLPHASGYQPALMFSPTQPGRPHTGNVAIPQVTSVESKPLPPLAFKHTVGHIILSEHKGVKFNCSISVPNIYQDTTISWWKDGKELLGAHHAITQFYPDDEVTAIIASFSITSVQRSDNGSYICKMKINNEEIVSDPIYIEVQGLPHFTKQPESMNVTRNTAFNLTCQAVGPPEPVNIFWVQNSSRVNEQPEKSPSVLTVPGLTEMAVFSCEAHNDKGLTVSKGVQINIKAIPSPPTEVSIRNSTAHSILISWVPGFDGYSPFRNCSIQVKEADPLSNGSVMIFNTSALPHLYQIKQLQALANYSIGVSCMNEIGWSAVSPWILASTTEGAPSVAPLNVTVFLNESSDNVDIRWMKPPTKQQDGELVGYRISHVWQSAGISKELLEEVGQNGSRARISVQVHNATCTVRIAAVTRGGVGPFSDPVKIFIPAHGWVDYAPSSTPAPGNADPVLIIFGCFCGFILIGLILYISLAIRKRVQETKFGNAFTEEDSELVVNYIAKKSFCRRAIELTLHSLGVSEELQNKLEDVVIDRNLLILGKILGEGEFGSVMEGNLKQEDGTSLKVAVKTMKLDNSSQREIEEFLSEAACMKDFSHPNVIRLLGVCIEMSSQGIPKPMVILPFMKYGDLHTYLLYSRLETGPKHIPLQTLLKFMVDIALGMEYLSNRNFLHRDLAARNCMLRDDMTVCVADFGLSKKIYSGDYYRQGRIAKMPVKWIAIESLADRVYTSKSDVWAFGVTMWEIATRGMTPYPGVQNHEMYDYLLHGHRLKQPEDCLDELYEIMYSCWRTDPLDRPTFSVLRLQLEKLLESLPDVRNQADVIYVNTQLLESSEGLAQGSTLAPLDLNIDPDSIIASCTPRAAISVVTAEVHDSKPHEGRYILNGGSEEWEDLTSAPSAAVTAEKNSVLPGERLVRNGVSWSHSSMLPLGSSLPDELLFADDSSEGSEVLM

[4] = molecular target: T1, rhMer/Fc Chimera (recombinant human …); assay: SPR, avidity format: rhMer/Fc Chimera immobilised on CM5 chip, antibody as analyte, 1:1 fit
Experimental: With respect to avidity and affinity measurements using SPR, the protocols below were used.
The activator was prepared with a mixture of 400 mM EDC and 100 mM NHS immediately prior to injection. The CM5 sensor chip was activated for 420 s with the mixture. […] The chip was deactivated by 1 M ethanolamine-HCl. […] 8 concentrations (0.3125, 0.625, 1.25, 2.5, 5, 10, 20 and 40 nM) of the antibodies and running buffer were injected at a flow rate of 30 μL/min for an association phase of 240 s, followed by 4800 s dissociation. 10 mM glycine pH 1.5 as regeneration buffer was injected following every dissociation phase. The chip was regenerated with 10 mM glycine pH 1.5. One surface channel without capturing ligand was used as control surface for reference subtraction. Final data of each interaction was deducted from reference channel and buffer channel data. […] A molecular weight of 150 kDa was used to calculate the molar concentration of the antibodies.

B1: W3725-xAb-IgG1K/(S34+S35) (antibody, V domains shown)
VH: QIQLVQSGPELKKPGETVKISCKASGYTFTNYGMNWVKQAPGKGLKWMGWINTYTGEPTYADDFKGRFVFSLETSASTAYLQINNLKNEDMATYFCARKSTVVSRYFDVWGAGTTVTVSS
VL: DIVLTQSHKFMSTSVGDRVSITCKASQDVGDAVTWCQQKPGQPPKLLIYWASTRHTGVPDRFTGSGSGTDFTLTINNVQSEDLADYFCQQYRSYPLTFGAGTKLELKR
notes: also called chimeric anti-MERTK antibody
koff [1]: 7e-06 s⁻¹

B2: z11 antibody (antibody, human IgG1, kappa, V domains shown)
VH: QVQLVQSGAEVKKPGASVKVSCKASGYTFTNYGMNWVRQAPGQGLEWMGWINTYTGEPTYADDFKGRVTMTLDTSTSTAYMELRSLRSDDMAVYYCARKSTVVSRYFDVWGQGTTVTVSS
VL: DIQMTQSPSFLSASVGDRVTITCKASQDVGDAVTWYQQKPGKAPKLLIYWASTRHTGVPDRFSGSGSGTDFTLTISSLQPEDFATYYCQQYRSYPLTFGQGTKLEIKR
koff [2]: < 1e-06 s⁻¹ | EC50 [3]: 7.9 nM | Kd [4]: 0.00299 nM

B3: z13 antibody (antibody, human IgG1, kappa, V domains shown)
VH: QVQLVQSGAEVKKPGASVKVSCKASGYTFTNYGMNWVRQAPGQGLEWMGWINTYTGEPTYADDFKGRVTFTLDTSTSTAYMELRSLRSDDMAVYYCARKSTVVSRYFDVWGQGTTVTVSS
VL: DIQMTQSPSFLSASVGDRVTITCKASQDVGDAVTWYQQKPGKAPKLLIYWASTRHTGVPDRFSGSGSGTDFTLTISSLQPEDFATYYCQQYRSYPLTFGQGTKLEIKR
koff [2]: < 1e-06 s⁻¹ | EC50 [3]: 7.6 nM | Kd [4]: 0.00368 nM
